Laboratory results published in US20240124586A1 (WUXI BIOLOGICS IRELAND, published 2024).
Values belong to the binder of their own block, whether it stands above or below them.

How the values were obtained:
[1] = molecular target: T1, human PD-1 ECD mouse Fc fusion (W305-hPro1.ECD.mFc) (human, UniProt Q15116 25-170); test: dual binding ELISA, PD-1 ECD.mFc coated, detection with biotinylated CTLA-4 ECD.hFc; first antibody named, first value; PD-1 coated, biotinylated CTLA-4 detection
T1 construct: extracellular domain; In-house protein; also called hPD-1-ECD; human PD-1 coated on the plate
T1 sequence (Q15116 25-170): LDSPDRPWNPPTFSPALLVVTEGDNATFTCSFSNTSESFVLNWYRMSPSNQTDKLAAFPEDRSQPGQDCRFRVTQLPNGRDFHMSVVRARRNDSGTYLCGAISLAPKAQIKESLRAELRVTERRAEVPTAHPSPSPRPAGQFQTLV
Experimental: (§1) In order to test whether the bispecific antibodies could bind to both hPD-1 and hCTLA-4, an ELISA assay was developed as below. A 96-well ELISA plate (Nunc MaxiSorp, ThermoFisher) was coated overnight at 4° C. with 0.5 μg/ml antigen-1 (hPD-1-ECD, W305-hPro1.ECD.mFc) in carbonate-bicarbonate buffer. After a 1 hour blocking step with 2% (w/v) bovine serum albumin (Pierce) dissolved in PBS, serial dilutions of the different PD-1×CTLA-4 bispecific antibodies in PBS containing 2% BSA PBS were incubated on the plates for 1 hour at room temperature. Following the incubation, plates were washed three times with 300 μL per well of PBS containing 0.5% (v/v) Tween 20. […] After washing the plates three times, Streptavidin-HRP (Lifetechnologies, #SNN1004) (1:20000 diluted) was added and incubated on the plates for 1 hour at room temperature. After washing six times with […] per well of PBS containing 0.5% (v/v) Tween 20, 100 μL tetramethylbenzidine (TMB) substrate was added for the detection per well. The reaction was stopped after approximately 5 minutes through the addition of […] per well of 2 M HCl. The absorbance of the wells was measured at 450 nm with a multiwall plate reader (SpectraMax® M5e).

[2] = molecular target: T2, human CD19 on CD19+ B cell lines (Ramos, Raji) (human, UniProt P15391 20-556); test: cell-based or functional assay
T2 sequence (looked up): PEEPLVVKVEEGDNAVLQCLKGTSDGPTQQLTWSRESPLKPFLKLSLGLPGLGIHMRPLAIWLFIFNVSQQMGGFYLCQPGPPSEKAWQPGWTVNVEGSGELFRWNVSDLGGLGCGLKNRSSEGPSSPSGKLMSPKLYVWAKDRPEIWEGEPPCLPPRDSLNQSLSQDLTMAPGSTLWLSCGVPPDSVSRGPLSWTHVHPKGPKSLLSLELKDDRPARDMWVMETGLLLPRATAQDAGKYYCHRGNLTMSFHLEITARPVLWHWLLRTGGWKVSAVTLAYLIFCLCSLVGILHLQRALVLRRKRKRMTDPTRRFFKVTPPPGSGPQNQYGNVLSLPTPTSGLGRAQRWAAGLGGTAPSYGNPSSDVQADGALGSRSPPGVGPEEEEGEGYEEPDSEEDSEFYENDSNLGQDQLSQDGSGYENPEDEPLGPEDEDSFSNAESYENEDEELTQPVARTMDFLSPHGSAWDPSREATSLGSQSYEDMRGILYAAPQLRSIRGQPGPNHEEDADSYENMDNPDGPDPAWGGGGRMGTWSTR

FcγRI = molecular target: T3, FcγRI (UniProt P12314 16-288, limits assumed); test: SPR (Biacore), receptor captured on anti-his chip, 1:1 model
T3 construct: His-tagged by the capture method
T3 sequence (P12314 16-288 limits assumed): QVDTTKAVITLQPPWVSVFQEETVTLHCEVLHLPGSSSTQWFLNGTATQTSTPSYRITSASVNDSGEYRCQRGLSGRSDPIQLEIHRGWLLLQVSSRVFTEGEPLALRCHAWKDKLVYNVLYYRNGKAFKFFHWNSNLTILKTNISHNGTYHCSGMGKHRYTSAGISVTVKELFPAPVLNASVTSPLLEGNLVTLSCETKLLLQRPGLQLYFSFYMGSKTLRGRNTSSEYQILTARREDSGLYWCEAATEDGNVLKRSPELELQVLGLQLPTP
Experimental: Antibody binding affinity to FcγRs was detected using Biacore T200 (or Biacore 8K). Each receptor was captured on an anti-his antibody immobilized CM5 sensor chip (GE). Antibodies at different concentrations were injected over the sensor chip at a flow rate of 30 uL/min for an association phase of 60 s, followed by 60 s dissociation. The chip was then regenerated by 10 mM glycine (pH 1.5) after each binding cycle.
The sensorgrams of blank surface and buffer channel were subtracted from the test sensorgrams. The experimental data was fitted by 1:1 model using Langmiur analysis (for FcγRI) or steady state model (for other receptors). A molecular weight of 150 KDa was used to calculate the molar concentration of antibodies.

[3] = molecular target: T4, human CTLA-4 on engineered 293F cells (W316-293F.hPro1.FL) (human, UniProt P16410 36-223); test: FACS binding to human CTLA-4 engineered cells
T4 construct: whole, on cells; also called human CTLA-4 engineered cells; CTLA-4+ cells
T4 sequence (P16410 36-223, change not shown): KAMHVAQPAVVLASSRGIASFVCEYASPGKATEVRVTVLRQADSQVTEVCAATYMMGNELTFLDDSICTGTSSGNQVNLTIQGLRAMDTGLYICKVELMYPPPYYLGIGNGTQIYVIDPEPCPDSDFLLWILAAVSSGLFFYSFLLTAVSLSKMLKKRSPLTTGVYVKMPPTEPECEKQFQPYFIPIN
Experimental: 3.16-fold titrated Abs with 1% BSA DPBS from 200 nM to 0.002 nM were added to the cells. Plates were incubated at 4° C. for 1 hour. After wash, […] 1:150 diluted PE-labeled goat anti-human antibody (Jackson 109-115-098) was added to each well and the plates were incubated at 4° C. for 1 hour. The binding of the antibodies onto the cells was tested by flow cytometry and the mean fluorescence intensity (MFI) was analyzed by FlowJo.

[4] = molecular target: T5, ECD of human CTLA-4 (SPR analyte) (human, UniProt P16410 36-161); test: SPR (Biacore), antibody captured as ligand on an anti-human IgG Fc chip, CTLA4 ECD as analyte
T5 construct: extracellular domain
T5 sequence (P16410 36-161): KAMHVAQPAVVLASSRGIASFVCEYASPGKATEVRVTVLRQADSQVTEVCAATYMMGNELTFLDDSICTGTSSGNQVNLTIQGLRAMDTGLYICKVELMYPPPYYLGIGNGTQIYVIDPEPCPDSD
Experimental: SPR technology was used to measure the on-rate constant (ka) and off-rate constant (kd) of the antibodies to ECD of CTLA-4 or PD-1. The affinity constant (KD) was consequently determined.
Biacore T200, Series S Sensor Chip CM5, Amine Coupling Kit, and 10×HBS-EP were purchased from GE Healthcare. Goat anti-human IgG Fc antibody was purchased from Jackson ImmunoResearch Lab (catalog number 109-005-098). In immobilization step, the activation buffer was prepared by mixing 400 mM EDC and 100 mM NHS immediately prior to injection. The CM5 sensor chip was activated for 420 s with the activation buffer. 30 μg/mL of goat anti-human IgG Fcγ antibody in 10 mM NaAc (pH 4.5) was then injected to Fc1-Fc4 channels for 200 s at a flow rate of 5 μL/min. The chip was deactivated by 1 M ethanolamine-HCl (GE). Then the antibodies were captured on the chip. Briefly, 4 μg/mL antibodies in running buffer (HBS-EP+) was injected individually to Fc3 channel for 30 s at a flow rate of […]. […] Regeneration buffer (10 mM Glycine pH 1.5) was injected at 10 μL min for 30 s following every dissociation phase.

[5] = molecular target: T1, human PD-1 ECD mouse Fc fusion …; test: dual binding ELISA, PD-1 ECD.mFc coated, detection with biotinylated CTLA-4 ECD.hFc; second antibody named, second value; PD-1 coated, biotinylated CTLA-4 detection
Experimental: as §1

EC50 [1]: 0.107 nM
B1: W3248-U6T1.G25R-1.uIgG4.SP, bispecific anti-PD-1 x CTLA-4 (bispecific antibody)
heavy: EVQLLESGGGLVQPGGSLRLSCAASGFTFSSHAMSWVRQAPGKGLEWVSTITGGGGSIYYADSVKGRFTISRDNSKNTLYLQMNSLRAEDTAVYYCAKNRAGEGYFDYWGQGTLVTVSSASTKGPSVFPLAPCSRSTSESTAALGCLVKDYFPEPVTVSWNSGALTSGVHTFPAVLQSSGLYSLSSVVTVPSSSLGTKTYTCNVDHKPSNTKVDKRVGGGGSGGGGSQVQLVESGGGVVQPGRSLRLSCAASGFTFSSYTMHWVRQAPGKGLEWVTFISYDGNNKYYADSVKGRFTISRDNSKNTLYLQMNSLRAEDTAIYYCARTGWLGPFDYWGQGTLVTVLEDLKNVFPPEVAVFEPSEAEISHTQKATLVCLATGFYPDHVELSWWVNGKEVHSGVCTDPQPLKEQPALQDSRYALSSRLRVSATFWQNPRNHFRCQVQFYGLSENDEWTQDRAKPVTQIVSAEAWGRYGPPCPPCPAPEFLGGPSVFLFPPKPKDTLMISRTPEVTCVVVDVSQEDPEVQFNWYVDGVEVHNAKTKPREEQFNSTYRVVSVLTVLHQDWLNGKEYKCKVSNKGLPSSIEKTISKAKGQPREPQVYTLPPSQEEMTKNQVSLTCLVKGFYPSDIAVEWESNGQPENNYKTTPPVLDSDGSFFLYSRLTVDKSRWQEGNVFSCSVMHEALHNHYTQKSLSLSLG
light 1: SYELTQPLSVSVALGQTARITCGGDNIGNKDVHWYQQKPGQAPVLVIYRDSNRPSGIPEGFSGSNSGNTATLTISRAQAGDEADYYCQVWDSIWVFGGGTKLTVLGQPKAAPSVTLFPPSSEELQANKATLVCLISDFYPGAVTVAWKADSSPVKAGVETTTPSKQSNNKYAASSYLSLTPEQWKSHKSYSCQVTHEGSTVEKTVAPTECS
light 2: not shown
notes: IgG4 (S228P); also called U6T1.G25R.IgG4

EC50 of cell lysis, CD8+ T cells and Raji cells, 4 hours [2]: 15 nM
Kd (FcγRI): 9.79 nM
B2: W3438-T3U4.E17-1.uIgG4.SP, bispecific anti-CD3 x CD19 (bispecific antibody)
heavy 1: QVQLVQSGAEVKKPGSSVKVSCKASGFAFTDYYIHWVRQAPGQGLEWMGWISPGNVNTKYNENFKGRVTITADKSTSTAYMELSSLRSEDTAVYYCARDGYSLYYFDYWGQGTLVTVLEDLKNVFPPEVAVFEPSEAEISHTQKATLVCLATGFYPDHVELSWWVNGKEVHSGVCTDPQPLKEQPALQDSRYALSSRLRVSATFWQNPRNHFRCQVQFYGLSENDEWTQDRAKPVTQIVSAEAWGRYGPPCPPCPAPEFLGGPSVFLFPPKPKDTLMISRTPEVTCVVVDVSQEDPEVQFNWYVDGVEVHNAKTKPREEQFNSTYRVVSVLTVLHQDWLNGKEYKCKVSNKGLPSSIEKTISKAKGQPREPQVYTLPPCQEEMTKNQVSLWCLVKGFYPSDIAVEWESNGQPENNYKTTPPVLDSDGSFFLYSRLTVDKSRWQEGNVFSCSVMHEALHNHYTQKSLSLSLGK
light 1: DIVMTQSPDSLAVSLGERATINCKSSQSLLNSRTRKNYLAWYQQKPGQPPKLLIYWASTRQSGVPDRFSGSGSGTDFTLTISSLQAEDVAVYYCTQSHTLRTFGGGTKVEIKPDIQNPDPAVYQLRDSKSSDKSVCLFTDFDSQTQVSQSKDSDVYITDKCVLDMRSMDFKSNSAVAWSQKSDFACANAFQNSIIPEDTFFPSPESS
heavy 2: QMQLVQSGPEVKKPGTSVKVSCKASGYAFTSYNMYWVRQARGQRLEWIGYIDPYNGDTTYNQKFKGRVTITRDMSTSTAYMELSSLRSEDTAVYYCLTTAYAMDYWGQGTLVTVSSASTKGPSVFPLAPCSRSTSESTAALGCLVKDYFPEPVTVSWNSGALTSGVHTFPAVLQSSGLYSLSSVVTVPSSSLGTKTYTCNVDHKPSNTKVDKRVESKYGPPCPPCPAPEFLGGPSVFLFPPKPKDTLMISRTPEVTCVVVDVSQEDPEVQFNWYVDGVEVHNAKTKPREEQFNSTYRVVSVLTVLHQDWLNGKEYKCKVSNKGLPSSIEKTISKAKGQPREPQVCTLPPSQEEMTKNQVSLSCAVKGFYPSDIAVEWESNGQPENNYKTTPPVLDSDGSFFLVSRLTVDKSRWQEGNVFSCSVMHEALHNHYTQKSLSLSLGK
light 2: DIQLTQSPSFLSASVGDRVTITCSASSTVNYMHWYQQKPGKAPKLLIYSTSNLASGVPSRFSGSGSGTEFTLTISSLQPEDFATYYCHQWSSYPYTFGQGTKLEIKRTVAAPSVFIFPPSDEQLKSGTASVVCLLNNFYPREAKVQWKVDNALQSGNSQESVTEQDSKDSTYSLSSTLTLSKADYEKHKVYACEVTHQGLSSPVTKSFNRGEC
notes: also called E17-Design_2-QQQQ (IgG4); E17-IgG4; copies: 1 + 1 + 1 + 1
EC50 of T-cell directed killing of malignant B cells (PI-positive Raji cells) [2]: 0.057 nM
EC50 of T-cell engaged malignant B cell killing [2]: 0.0177 nM

EC50 [3]: 3.17 nM
Kd [4]: 0.0356 nM
koff [4]: 2.88e-05 s⁻¹
kon [4]: 808000 M⁻¹ s⁻¹
EC50 [5]: 0.071 nM
B3: W3248-U6T5.G25-1.uIgG4.SP, bispecific anti-PD-1 x CTLA-4 (bispecific antibody)
heavy: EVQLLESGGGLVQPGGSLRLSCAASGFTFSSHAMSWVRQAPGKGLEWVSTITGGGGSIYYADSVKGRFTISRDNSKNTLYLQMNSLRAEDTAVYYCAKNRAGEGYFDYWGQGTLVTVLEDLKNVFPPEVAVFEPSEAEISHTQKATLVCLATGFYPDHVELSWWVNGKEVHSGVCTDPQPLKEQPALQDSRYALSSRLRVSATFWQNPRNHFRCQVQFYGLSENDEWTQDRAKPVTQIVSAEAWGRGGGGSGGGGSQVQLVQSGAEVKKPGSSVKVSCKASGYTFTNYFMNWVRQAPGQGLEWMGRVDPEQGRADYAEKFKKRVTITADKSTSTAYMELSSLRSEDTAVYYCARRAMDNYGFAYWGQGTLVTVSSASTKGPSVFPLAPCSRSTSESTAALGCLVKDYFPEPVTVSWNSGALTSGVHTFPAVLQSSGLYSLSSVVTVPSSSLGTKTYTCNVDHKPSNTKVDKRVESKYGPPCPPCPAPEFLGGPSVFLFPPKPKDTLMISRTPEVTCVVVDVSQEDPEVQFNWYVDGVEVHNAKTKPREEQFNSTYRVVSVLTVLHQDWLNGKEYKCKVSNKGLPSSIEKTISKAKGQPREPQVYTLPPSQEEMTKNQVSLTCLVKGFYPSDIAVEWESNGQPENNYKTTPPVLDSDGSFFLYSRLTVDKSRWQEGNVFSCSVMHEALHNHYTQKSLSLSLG
light 1: SYELTQPLSVSVALGQTARITCGGDNIGNKDVHWYQQKPGQAPVLVIYRDSNRPSGIPEGFSGSNSGNTATLTISRAQAGDEADYYCQVWDSIWVFGGGTKLTVLPDIQNPDPAVYQLRDSKSSDKSVCLFTDFDSQTQVSQSKDSDVYITDKCVLDMRSMDFKSNSAVAWSQKSDFACANAFQNSIIPEDTFFPSPESS
light 2: EIVLTQSPDFQSVTPKEKVTITCSANSALSYMYWYQQKPDQSPKLWVHGTSNLASGVPSRFSGSGSGTDFTLTINSLEAEDAATYYCHHWSNTQWTFGGGTKVEIKRTVAAPSVFIFPPSDEQLKSGTASVVCLLNNFYPREAKVQWKVDNALQSGNSQESVTEQDSKDSTYSLSSTLTLSKADYEKHKVYACEVTHQGLSSPVTKSFNRGEC
notes: IgG4 (S228P); also called WBP3248-U6T5.G25-1-uIgG4.SP; U6T5.G25.IgG4
